Measurements from article PMC3281585 (Science (New York, N.Y.), 2011).

B1: gp62 protein of the T4 clamp loader (natural protein, bacteriophage T4)
chain: SLFKDDIQLNEHQVAWYSKDWTAVQSAADSFKEKAENEFFEIIGAINNKTKCSIAQKDYSKFMVENALSQFPECMPAVYAMNLIGSGLSDEAHFNYLMAAVPRGKRYGKWAKLVEDSTEVLIIKLLAKRYQVNTNDAINYKSILTKNGKLPLVLKELKGLVTDDFLKEVTKNVKEQKQLKKLALEW
B2: gp44 protein of the T4 clamp loader (natural protein, bacteriophage T4)
chain: MITVNEKEHILEQKYRPSTIDECILPAFDKETFKSITSKGKIPHIILHSPSPGTGKTTVAKALCHDVNADMMFVNGSDCKIDFVRGPLTNFASAASFDGRQKVIVIDEFDRSGLAESQRHLRSFMEAYSSNCSIIITANNIDGIIKPLQSRCRVITFGQPTDEDKIEMMKQMIRRLTEICKHEGIAIADMKVVAALVKKNFPDFRKTIGELDSYSSKGVLDAGILSLVTNDRGAIDDVLESLKNKDVKQLRALAPKYAADYSWFVGKLAEEIYSRVTPQSIIRMYEIVGENNQYHGIAANTELHLAYLFIQLACEMQWK

What was measured:
[1] = molecular target: B2; assay: crystal structure
[2] = molecular target: the molecule itself; assay: crystal structure

Binder | binding result [1] | binding result [2]
B1 | binds | –
B2 | – | binds
